Here are results for 1 substance from paper PMC10707054.

For the assay, the target named is FLAG-PTTG1Δ159. The assay can be described thus: co-IP; TCAM2 cells overexpressing FLAG-PTTG1 or FLAG-PTTG1Δ159; IP with M2 αFLAG antibody overnight at 4 °C, Dynabeads; IP lysis buffer 50 mM Tris-Cl pH 7.5, 150 mM NaCl, 1% Nonidet P-40, 1 mM EDTA; Western blot for endogenous SPTBN1, densitometry. On the technique in general: A western blot detects proteins with antibodies after separation by electrophoresis.

Substance “Spectrin-βII-chain (SPTBN1) (from UniProt Q01082 1-2364) (natural protein)” returned a binding relative to wild-type PTTG1 (densitometry of the co-IP) of 30%.
